The values that follow come from patent US20180264072A1.

Experiment [1] concerns the target talin H1-H4. The experiment in a line: size exclusion chromatography; stoichiometry listed for the complex. (In general: Size exclusion chromatography separates by hydrodynamic size, large species first.)
The target in experiment [2] is talin H1-H4. The experiment in a line: ITC; A524 in the cell, talin H1-H4 as titrant. A general note: Isothermal titration calorimetry measures the heat released or taken up as one component is titrated into another.
Experiment [3] addresses T1, vinculin in C2.7 mouse myoblast cells (mouse) (UniProt Q64727).
T1 sequence: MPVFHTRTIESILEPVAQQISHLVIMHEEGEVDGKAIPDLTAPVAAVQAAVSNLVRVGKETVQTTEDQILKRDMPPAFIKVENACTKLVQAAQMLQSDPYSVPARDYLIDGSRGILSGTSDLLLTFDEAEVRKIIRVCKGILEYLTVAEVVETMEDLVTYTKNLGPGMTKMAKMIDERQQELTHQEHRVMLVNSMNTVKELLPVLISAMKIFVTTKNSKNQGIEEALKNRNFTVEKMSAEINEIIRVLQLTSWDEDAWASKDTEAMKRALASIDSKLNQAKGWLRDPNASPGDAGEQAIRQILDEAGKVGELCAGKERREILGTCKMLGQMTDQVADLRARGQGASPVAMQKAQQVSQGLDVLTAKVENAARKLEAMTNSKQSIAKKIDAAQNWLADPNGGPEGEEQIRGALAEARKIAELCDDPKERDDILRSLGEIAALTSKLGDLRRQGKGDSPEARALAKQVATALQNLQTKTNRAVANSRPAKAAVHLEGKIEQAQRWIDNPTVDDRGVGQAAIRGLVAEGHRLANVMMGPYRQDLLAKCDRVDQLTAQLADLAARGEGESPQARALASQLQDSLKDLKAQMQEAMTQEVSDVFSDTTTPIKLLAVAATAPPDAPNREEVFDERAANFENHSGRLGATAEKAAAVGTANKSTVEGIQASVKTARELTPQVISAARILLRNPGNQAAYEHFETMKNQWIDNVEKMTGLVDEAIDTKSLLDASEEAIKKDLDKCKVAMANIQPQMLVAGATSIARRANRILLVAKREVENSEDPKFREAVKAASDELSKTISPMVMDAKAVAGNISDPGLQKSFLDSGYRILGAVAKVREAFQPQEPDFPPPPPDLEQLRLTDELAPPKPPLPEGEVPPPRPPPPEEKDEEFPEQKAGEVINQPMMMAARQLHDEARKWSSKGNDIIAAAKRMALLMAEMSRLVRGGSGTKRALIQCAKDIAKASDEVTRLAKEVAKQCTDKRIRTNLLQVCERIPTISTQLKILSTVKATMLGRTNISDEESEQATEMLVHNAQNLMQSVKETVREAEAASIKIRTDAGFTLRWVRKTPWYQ
The experiment in a line: cell-based or functional assay.

In experiment [4] the target is talin H1-H4. The experiment in a line: ITC; A483 in the cell, talin H1-H4 as titrant.
A further experiment deals with talin in HeLa cells (UniProt Q9Y490). The experiment in a line: cell-based or functional assay.
Experiment [5] deals with talin H1-H4. Kind of experiment: isothermal titration calorimetry.
Experiment [6] addresses talin H1-H4. Kind of experiment: isothermal titration calorimetry, cell talin H1-H4, titrant talin H46 (VBS3).
In experiment [7] the target is talin H1-H4. Kind of experiment: ITC; talin H1-H4 in the cell, IpaA VBS1 peptide as titrant.
For experiment [8], the target named is talin H1-H4. Kind of experiment: size exclusion chromatography; stoichiometry listed for the ternary complex.
Experiment [9] deals with talin H1-H4. The experiment in a line: ITC; HVD1:A483 equimolar complex in the cell, talin H1-H4 as titrant.
Experiment [10] deals with talin H1-H4. The experiment in a line: ITC; talin H1-H4 in the cell, IpaA VBS3 peptide as titrant.

The term Kd denotes the equilibrium constant for the complex coming apart. A high value points to lower affinity.

Chain of GFP-A483 (P18010 483-633): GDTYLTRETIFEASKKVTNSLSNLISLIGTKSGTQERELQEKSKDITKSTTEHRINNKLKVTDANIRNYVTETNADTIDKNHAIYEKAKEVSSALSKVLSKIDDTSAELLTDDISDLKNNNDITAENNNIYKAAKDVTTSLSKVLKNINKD
Chain of IpaA 483-633 (A483) (P18010 483-633 limits assumed): as the sequence (P18010 483-633) above
Chain of A483:HVD1 complex (P18010 483-633 limits assumed): as the sequence (P18010 483-633) above
Chain of IpaA 524-633 (A524) (P18010 524-633 limits assumed): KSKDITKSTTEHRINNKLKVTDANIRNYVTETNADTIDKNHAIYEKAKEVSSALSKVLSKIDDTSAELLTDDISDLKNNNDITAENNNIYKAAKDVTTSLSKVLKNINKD
Chain of talin H1-H4 (P26039 482-636): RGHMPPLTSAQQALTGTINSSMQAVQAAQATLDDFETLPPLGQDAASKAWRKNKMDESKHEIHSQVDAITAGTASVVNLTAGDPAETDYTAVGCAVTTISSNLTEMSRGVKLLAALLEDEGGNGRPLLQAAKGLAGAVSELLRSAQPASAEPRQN
Chain of talin in HeLa cells (Q9Y490 whole entry): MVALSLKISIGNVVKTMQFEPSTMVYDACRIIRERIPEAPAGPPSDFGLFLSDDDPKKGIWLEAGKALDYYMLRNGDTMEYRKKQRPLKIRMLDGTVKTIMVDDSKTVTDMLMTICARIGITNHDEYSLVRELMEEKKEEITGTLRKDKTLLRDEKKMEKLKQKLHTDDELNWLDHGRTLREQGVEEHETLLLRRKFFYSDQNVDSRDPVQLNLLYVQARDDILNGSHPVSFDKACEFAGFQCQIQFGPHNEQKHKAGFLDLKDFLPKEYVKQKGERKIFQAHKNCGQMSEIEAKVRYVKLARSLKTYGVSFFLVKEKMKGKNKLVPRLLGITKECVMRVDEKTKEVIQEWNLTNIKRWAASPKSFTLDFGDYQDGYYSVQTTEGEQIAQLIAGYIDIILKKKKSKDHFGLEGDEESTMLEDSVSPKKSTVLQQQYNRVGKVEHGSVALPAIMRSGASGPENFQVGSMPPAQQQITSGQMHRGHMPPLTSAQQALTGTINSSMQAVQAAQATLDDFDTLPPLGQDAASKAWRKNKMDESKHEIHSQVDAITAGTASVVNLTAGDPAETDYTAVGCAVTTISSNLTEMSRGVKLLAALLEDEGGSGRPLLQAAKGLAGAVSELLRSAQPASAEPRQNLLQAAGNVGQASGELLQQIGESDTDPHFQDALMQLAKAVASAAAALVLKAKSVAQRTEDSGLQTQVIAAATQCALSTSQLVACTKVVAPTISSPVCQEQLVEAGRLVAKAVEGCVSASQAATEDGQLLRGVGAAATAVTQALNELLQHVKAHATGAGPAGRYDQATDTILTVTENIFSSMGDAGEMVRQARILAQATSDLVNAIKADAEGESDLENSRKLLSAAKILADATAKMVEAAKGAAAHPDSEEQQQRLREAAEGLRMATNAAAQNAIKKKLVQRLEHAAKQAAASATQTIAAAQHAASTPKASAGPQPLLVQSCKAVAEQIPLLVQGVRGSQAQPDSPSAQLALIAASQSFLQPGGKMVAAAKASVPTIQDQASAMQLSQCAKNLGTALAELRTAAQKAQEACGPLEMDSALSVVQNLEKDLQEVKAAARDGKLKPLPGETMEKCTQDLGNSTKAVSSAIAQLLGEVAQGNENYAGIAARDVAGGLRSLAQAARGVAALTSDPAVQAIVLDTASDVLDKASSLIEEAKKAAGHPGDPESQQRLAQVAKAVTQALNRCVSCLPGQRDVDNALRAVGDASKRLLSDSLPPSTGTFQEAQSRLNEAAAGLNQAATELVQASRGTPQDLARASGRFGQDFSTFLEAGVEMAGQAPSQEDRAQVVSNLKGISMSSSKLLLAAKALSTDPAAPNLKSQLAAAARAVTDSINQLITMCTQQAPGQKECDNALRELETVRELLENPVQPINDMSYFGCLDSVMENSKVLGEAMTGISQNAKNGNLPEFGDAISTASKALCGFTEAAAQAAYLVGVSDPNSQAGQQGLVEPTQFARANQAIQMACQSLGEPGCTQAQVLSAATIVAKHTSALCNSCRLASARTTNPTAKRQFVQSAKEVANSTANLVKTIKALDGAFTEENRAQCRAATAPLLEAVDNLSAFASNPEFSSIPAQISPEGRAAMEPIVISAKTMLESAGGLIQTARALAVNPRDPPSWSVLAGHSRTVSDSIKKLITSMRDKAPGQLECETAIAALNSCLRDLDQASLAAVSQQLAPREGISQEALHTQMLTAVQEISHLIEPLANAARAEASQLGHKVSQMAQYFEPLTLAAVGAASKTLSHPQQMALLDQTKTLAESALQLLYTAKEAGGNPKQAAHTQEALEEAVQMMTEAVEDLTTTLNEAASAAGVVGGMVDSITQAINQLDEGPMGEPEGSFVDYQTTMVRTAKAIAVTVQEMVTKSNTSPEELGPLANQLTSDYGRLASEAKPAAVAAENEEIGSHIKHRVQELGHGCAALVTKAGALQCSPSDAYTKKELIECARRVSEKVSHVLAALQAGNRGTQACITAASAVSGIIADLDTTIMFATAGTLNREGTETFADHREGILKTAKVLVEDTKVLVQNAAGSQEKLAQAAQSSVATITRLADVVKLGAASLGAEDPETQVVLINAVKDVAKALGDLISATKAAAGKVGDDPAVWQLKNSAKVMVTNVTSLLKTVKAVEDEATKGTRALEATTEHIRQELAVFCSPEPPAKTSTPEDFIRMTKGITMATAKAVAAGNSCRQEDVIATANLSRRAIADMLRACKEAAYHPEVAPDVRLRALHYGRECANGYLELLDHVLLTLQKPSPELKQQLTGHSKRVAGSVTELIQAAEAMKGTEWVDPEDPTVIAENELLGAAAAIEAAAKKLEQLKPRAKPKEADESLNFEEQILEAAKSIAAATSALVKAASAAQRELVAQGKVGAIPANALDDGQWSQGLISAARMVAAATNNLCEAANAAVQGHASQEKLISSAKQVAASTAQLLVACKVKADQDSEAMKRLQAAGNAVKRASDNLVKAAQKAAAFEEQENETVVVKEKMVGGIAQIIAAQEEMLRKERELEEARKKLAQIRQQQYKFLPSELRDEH
Chain of IpaA full length (P18010 whole entry): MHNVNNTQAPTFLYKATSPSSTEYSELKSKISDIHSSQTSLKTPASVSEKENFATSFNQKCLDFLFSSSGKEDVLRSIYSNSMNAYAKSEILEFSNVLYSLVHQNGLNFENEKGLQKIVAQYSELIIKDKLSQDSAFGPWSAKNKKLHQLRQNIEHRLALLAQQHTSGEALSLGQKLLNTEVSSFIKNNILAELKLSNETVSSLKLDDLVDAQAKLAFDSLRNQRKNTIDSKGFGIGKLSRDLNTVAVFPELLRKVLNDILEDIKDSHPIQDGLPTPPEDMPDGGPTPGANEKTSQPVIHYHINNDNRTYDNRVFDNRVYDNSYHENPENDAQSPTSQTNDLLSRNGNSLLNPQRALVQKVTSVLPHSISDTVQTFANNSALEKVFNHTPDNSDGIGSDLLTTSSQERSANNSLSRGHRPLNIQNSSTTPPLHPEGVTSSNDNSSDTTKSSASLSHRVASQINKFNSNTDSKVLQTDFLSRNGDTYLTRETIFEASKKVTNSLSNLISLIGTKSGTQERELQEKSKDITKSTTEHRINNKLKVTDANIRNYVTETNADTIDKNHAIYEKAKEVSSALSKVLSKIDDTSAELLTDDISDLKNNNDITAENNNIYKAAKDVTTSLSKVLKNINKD

With “IpaA 524-633 (A524) (from UniProt P18010 524-633)”, the stoichiometry (molar ratio of the complex (1:1)) with talin H1-H4 [1] amounted to 1. In the experiment with talin H1-H4 [2], this substance returned a -TΔS of -3.47 kcal/mol, a Kd of 2.03 µM, a N (stoichiometry) of 1.5 and a ΔG of -7.45 kcal/mol. For the same substance, the ΔH with talin H1-H4 [2] is -3.98 kcal/mol.
In experiment [3], GFP-A483 (from UniProt P18010 483-633) displayed an adhesion stress σ=F/A at detachment, parallel plates of 6.5 nN/µm^2; a median cell surface of 1850 µm^2; a median time between two divisions (second group of GFP-A483 cells) of 17.1 h; a median velocity of migration of 30.7 µm/hour. In addition, in experiment [3], the rate of single-cell traction force generation (dF/dt), parallel plates came to 0.4.
As to “IpaA 483-633 (A483) (from UniProt P18010 483-633)”, in the experiment with talin H1-H4 [1], the stoichiometry (molar ratio of the complex (1:1)) came out at 1. In the experiment with talin H1-H4 [4], this substance yielded a -TΔS of -3.8 kcal/mol, a Kd of 0.0249 µM, a N (stoichiometry) of 1 and a ΔG of -10 kcal/mol. Also, the ΔH in the experiment with talin H1-H4 [4] is -6.23 kcal/mol.
For the substance “IpaA full length (from UniProt P18010 1-633)”, in the experiment with talin in HeLa cells, the percentage of foci forming talin coat structures was 52%.
In the experiment with talin H1-H4 [5], “talin H46 (talin VBS3) α-helix (peptide)” gave a -TΔS of 7.2 kcal/mol, a Kd of 0.06 µM and a ΔH of -17 kcal/mol. In the experiment with talin H1-H4 [6], this substance displayed an N of 0.92 and a ΔG of -9.97 kcal/mol.
IpaA VBS1 peptide: in the experiment with talin H1-H4 [7], the -TΔS is -2.47 kcal/mol, the Kd came to 15.2 µM, the N (stoichiometry) is 1.22 and the ΔG is -6.58 kcal/mol. This substance also returned a ΔH in the experiment with talin H1-H4 [7] of -4.1 kcal/mol.
Turning to “A483:HVD1 complex (from UniProt P18010 483-633; P18206 1-258)”, the -TΔS in the experiment with talin H1-H4 [5] was 1.37 kcal/mol. In the experiment with talin H1-H4 [8], this substance returned a stoichiometry of 1. In the experiment with talin H1-H4 [9], this substance returned a -TΔS of -1.37 kcal/mol, a N (stoichiometry) of 0.459, a ΔG of -7.68 kcal/mol and a ΔH of -9.05 kcal/mol.
Regarding IpaA VBS3/TBS peptide, in the experiment with talin H1-H4 [10], the -TΔS was -2.83 kcal/mol, the Kd was found to be 0.175 µM, the N (stoichiometry) turned out to be 0.893 and the ΔG is -9.22 kcal/mol. The substance further yielded a ΔH with talin H1-H4 [10] of -6.39 kcal/mol. Also, in the experiment with talin H1-H4 [5], the -TΔS is -1.53 kcal/mol, the Kd was found to be 0.15 µM and the ΔG is -9.07 kcal/mol.
